# Test: soluble on expression in E. coli; label from the status in PepcDB or PDB records
row,Sequence,soluble on expression in E. coli
1,MVAVSFGAAFRETLEGSGNPQDEFEKLEFEEAYWPELYTTRGPEDDEIYQPFIGPWDYETDLPELHETQGPEDNEVYQPFPGPCFP,not soluble
2,MENIFLKRLEFKAFEEDSVFSKIEGLNKFNSLNFKKPITFFSGENGTGKSTLLEAIAVNWGFNPEGGSINFNFSTKDTHLDLHNYLTVGKSVKRATDGFFLRAESFYNVATYAENIDLDFSEYGDKSLHHQSHGESFLNLVNHRFRGNGLYLLDEPEAALSPQRQLALMISIKKLIDEGSQFIIVSHSPILLAMPDSQIISFDKDSPLEITYEESMPYEITSLFLNNKNRILSHLFAELEHHHHHH,soluble
3,MGSDKIHHHHHHMDRRDFFKTVAITGAAMTIQRSEAMEILTQTINKANGDKPDLVAVMGGEPEAMFRRAISELGGMKQFIKPGQKVVVKPNIGWDKVPELAGNTNPKLITEIIKQCFATGAKEVTVFDHTCDDWQKCYKNSGIEAAAKEAGAKVMPAHLESYYKPVDLPKGQKMKKAKIHEAILNCDVWINVPILKNHGGANLTISMKNHMGIVWDRGFFHQNDLQQCIADICTLEKKAVLNVVDAYRIMKTNGPRGRSASDVVLAKGLFISPDIVAVDTAAAKFFNQIREMPLDTVGHLAKGEALKVGTMDIDKLNVKRIKM,not soluble
4,MHDEQFCVGYNFLEAEDTFREDGLEPVTLAIHGTPEVLQLLGNKPLNWDGPISFGLFVDFHSQKALNYISMLHKCDAAFKRQMTVHFAFRISPSQSECPMIQVLGYQDCATFLQKSKQLLEEIEDSFQIYPINLMRNIARRGAKSDLHLIIDTDMMMSTNFAKMVKPIANRMIDGKNKQVLVVRRFETNENELPMSFGDLEEGIENHKTFQFHHKFFFVGHQIPNLMEWFERSHASNDVVAWEIPYTGNDWEVQIILHRNDPYNVEYFPSRVKDMQSLIYKLCRANYTFNLLSHVFNVHKGIKEDDTMYSKVVTAHTKRQGRLRTLSRYVTEIDRKYPDTMKRCGQFLL,not soluble
5,MAHHHHHHMINSVYHSKKACVEALRAVERLQPSWWTPPCSEFLHRVEQTPTVTAQPNQKTLIVLEGIDGVGKSLVAQSLIEKLGDSAVLIRTPHPDLSGIRETFRAQTEETARAFYSAANYLAAWDAFHATKERKFVVFDRWWCSTCAMALANSCRLAALPAAGDAVYQWPQDLPPFQLGALLYVEEHIRQARIRQRAPEDAEERRLRAQQEMREVAMEAYRRFGLLNEVHVATYGVAVNRILALMTEKGLPHSATPFSAEELAALRQI,soluble
6,MRVVIVGAGLAGLAAAVDLVDAGHRVEIYESRPFVGGKVSSWQDADGNHIEMGLHVFFYNYANLFELMTKVGAIANLLPKEHTHTFINRGGQVGELDFRFPLGAPFNGLKAFFTTRQLSAADKFFNAIALGTSPVVRGLVDYEGAMRQIRALDCMSFAEWFRRHGGSENSLKRLWNPISYALGFIDTEHMSARCMLTIFMMFAAKTTASRLNMLKGSPAEYLLKPLVNYIEARGAKIHLRRRVKEILFRGEDASTWRVEGLVIPRGEALETVTADAYLCACDVPGIQRLIPEAWRSHPTFDNIFKLEAVPVATVQLRFDGWVTELQDPRKQKQVAATGIDNLLYTADADFSCFADLALTSPADYYREGQGSLLQVVLTPGDPFIKASNEEIAQHVLRQVHELFPSSRHLNMTWYSVVKLAQSLYREAPGMDPYRPPQKTPVPNFYLAGSYTQQDYIDSMEGATMSGRQAAQAILAGGHPLEHHHHHH,soluble
7,MSLEGYSVLVLERHYRAGGYAHSFRRRKFIFDSAVRIAAGAMDGGLLEELLQEAGVSQDVEFLHLEDIYTAYYPNRKITVKGSVEGLIEAYCEEFPHECHNIRALVQEMEKLYEVTLMLLHSGDPLKVLSNPLMLKYRDKSFHDLTSSFLQDPQAIHSFAALWAYYGTPPTQGSAMFFAYAIMSYFKEDIYYAKGSFQSLADAFVKRIESLGGEVCLRNEVQRVEVEDRQIKGVHLQTGEYVEAEKVVCNGDFLKLVQHLVGEEHFPARYLKRISKLKPSISAFEVFLGVDLPLEKQGLSHETFIYNDYDYDLFMEKHQSLGEIGASGLSGLAISIPSLVDSSLAPEGMHTAILTTLVPYDIGCDWKEKKEDYQDQLIKMAERAIPNLGRHAVHVESGTPLTMERYTNNSFGSIYGWEQTKNQMTGRPQHETPIKGLYLSGQWTDPGGGIVSAILSGYKLRKKIMKEQVVMEGHHHHHH,not soluble
8,MGSSHHHHHHSSGLVPRGSHMHMQVTLQVTPPCTQERHYEHLGRCCSRCEPGKYLSSKCTPTSDSVCLPCGPDEYLDTWNEEDKCLLHKVCDAGKALVAVDPGNHTAPRRCACTAGYHWNSDCECCRRNTECAPGFGAQHPLQLNKDTVCTPCLLGFFSDVFSSTDKCKPWTNCTLLGKLEAHQGTTESDVVCSSSMTLRRPPKEAQALEHHHHHH,soluble
9,MSLSPAGGPDLAALAASSTSIDLPYLLAGVENENELDLYVVPSGKPVAVRAATFDSERQVYSLALDNPQRILTWTPASAPGGDEGNSTSLPLVPPGTVVYTGSSLNPVVTEQEGYPALDLLDQERLIITFPMDSGLPPILVVFKSPRYEAGTSTGHGLEHHHHHH,soluble
10,MRLVQDYDQQPIMYDEVELLIQAVDQQPHPLLRLRDKAIIQLGLQGGFRRSELANLKVHYLSFMRDKLKVRLPFSKSNQQGLREWKSLPDSEPFAAYHAVKSWLNESQITDGHLFRSISRDGKTLRPYHVNDNSKPKSTFSRNSGFLNGDDIYRIIKQYCLKAGLPAQYYGAHSLRSGCVTQLHENNKDILYIMARTGHTDPRSLRHYLKPKEDLEHHHHHH,soluble
11,MGSDKIHHHHHHMDKAFPSGLAVGIFDHLDEDGPDIARQYEDRLMLAEACDHLGFYAYHLAEHHCTPHGRGPSPNLFLSSVAQRTRRLRVGPLVMLLALYHPLRAFEEICMLDQLSGGRLELGIGRGSLPIELGYFGIGSDAAPNHYAEASEILINALKGGTLSYQGRHFELNSVPLTLRTHQRPHPPTWIATNRPESAVWAAANGVNIACVGPSSSVRRITDAFRREHTSEADDQTPFLGLLRMVVIGRSETDARSLAAPAYERWLKSFKFLYDLNGMPTPPNLPLTFDAAIEKELCVVGTAASAGHALLEQLEAAGANYLLCQPAFGNLSLDASLYTATAIQSAIMARVG,not soluble
12,MKFLELNKKRHATKHFTDKLVDPKDVRTAIEIATLAPSAHNSQPWKFVVVREKNAELAKLAYGSNFEQVSSAPVTIALFTDTDLAKRARKIARVGGANNFSEEQLQYFMKNLPAEFARYSEQQVSDYLALNAGLVAMNLVLALTDQGIGSNIILGFDKSKVNEVLEIEDRFRPELLITVGYTDEKLEPSYRLPVDEIIEKR,soluble
13,MQGEDRWADIREMNDRLIACERCPRLVEFRKAVVGRDKRFRGETYWARPVPGYGDINGRLLIVGLAPAASGGNRTGRVFTGDKSSDFLVSCLHEAGITNQPTSERRDDGLIYYDAYITAAVKCVPPDNKPLPEEIENCSVYLRSEIGFMKNLKVILVLGQIALQAVVRLIADPAEPRSRYRFVHGAVYSMNGIRVVCSYHPSPRNVNTGKLKRSDFVDLLKKVKEMALE,not soluble
14,MLSLPPPEFYKLWIINKSPYQLFNIYRSGIMKVKVLDASAIIHGYNPIIEEGEHYTTPEVLEEIESKKIIVEQALDFGKLKIMSPNREYIKKVEEVVKKTGDNLSQQDIGVLALALNLNAILYTDDYGIQNVAKKLNIEVRGIAFEPTNKDFIWRKICEGCKKLYPVDYEEDICEICGSPLKRKMVKSRLKKKRKKKLEHHHHHH,soluble
15,MSLKTNKLINKSFRFKQFSIEEGTCGMPISTDGVLLGSWAFSLSPTTILDIGCGTGLLSLMCAQRFPHAHITALDIEQTAYLAAEHNRQQSPWAERIECQHADILHWQPSKRFAAIICNPPYFNSGETAQHQVRATARHTISLQHQALIERLPQLLEPDGVASFILPKAEGEDFIALARQAGLFVGRYCQVQPTTDKPVHRLLFELHLSPCLPVETRLVIREQQGYSEAFCQLTRDFYLKMSEGHHHHHH,soluble
16,MTVEERSNTAKVDILGVDFDNTTMLQMVENIKTFFANQSTNNLFIVTANPEIVNYATTHQAYLELINQASYIVADGTGVVKASHRLKQPLAHRIPGIELMDECLKIAHVNHQKVFLLGATNEVVEAAQYALQQRYPNISFAHHHGYIDLEDETVVKRIKLFKPDYIFVGMGFPKQEEWIMTHENQFESTVMMGVGGSLEVFAGAKKRAPYIFRKLNIEWIYRALIDWKRIGRLKSIPIFMYKIAKAKRKIKKAK,not soluble
17,MPRYLGLMSGTSLDGMDIVLIEQGDRTTLLASHYLPMPAGLREDILALCVPGPDEIARAAEVEQRWVALAAQGVRELLLQQQMSPDEVRAIGSHGQTIRHEPARHFTVQIGNPALLAELTGIDVVADFRRRDVAAGGQGAPLVPAFHQALFGDDDTSRAVLNIGGFSNVSLLSPGKPVRGFDCGPGNVLMDAWIHHQRGEHFDRDGAWAASGQVNHALLASLLADEFFAARGPKSTGRERFNLPWLQEHLARHPALPAADIQATLLELSARSISESLLDAQPDCEEVLVCGGGAFNTALMKRLAMLMPEARVASTDEYGIPPAWMEGMAFAWLAHRFLERLPGNCPDVTGALGPRTLGALYPA,not soluble
18,MNQKPTPLMSPPPPAQQNGKDHKEKLHRIEDIMYSDADTFPEFSNRDGSRETVDTCWQLVLIRVPEHPNETHIKTINDAITSEMKATWKIPATSFAYVSAPHIPILQLAYGVAKKHFGEKTAIRSSFMFAEPKNDKFLIAKDSDLKHLKYEVILGASRFCWTKVETHAEMSKRIESTLFELMRVLPNLVLFLGPLAFDVLYETLEMQKRKTIAKPGVVIENFKRENNKWKRVQKHGATSISVPLC,not soluble
19,MSLSYPWPDAGTALNAISTPMPVIDEDRLAANILRAQSYLDAHGKTFRPHIKTHKIPAIAKQQLQAGAIGINCQKVSEAEVFADAGFEDILITYNILGAAKLSRLKALNARIGRLSVVADSAVTIAGLADTFDAARPLAVLVECDTGGKRCGVQTPEAALALAEQIVSASGLIFRGILTYPAPGGAEMVEKFIRETMALLATKGIDCPVRSSGGSPDFYSAHLVASATEHRAGTYIYNDRSMLRAGHCSAGDLAMHVLATVVSKPTADRAVLDSGSKALTSDLLGFNDYGLLEGYEGAKIISLSEEHAVVDLSGCTGARPEIGDVVQVVPNHTCVVSNLFDRMVFHRNGVVTRVEQVAARGTVWEGHHHHHH,soluble
20,MGSDKIHHHHHHMNIQDYPDRDMLAIDLANHLAGELEATLFTHDSATLAVAGGTTPGPVFDVLCAADLDWHRVMVLPTDERCVPQDHSRANARLIAERLLVNRAASARYLPLYLPGAEPEDCLAEVEALLTPALPLSVLVLGMGEDMHTASLFAGMPGLAAALDADAPALAVARPETQPENRITLTAPVLNGALSKHLIIYGAAKRKALERAMSMHPEEAPIAAVLDGITVHWAE,not soluble
21,MGSDKIHHHHHHMSLQSLKINFAEWLLLKVKYPSQYWLGAADQPVKAAAHQKKIILTLLPSHDNLGDHAIAYASKAFLEQEYPDFDIVEVDMKDIYKSAKSLIRSRHPEDMVFIIGGGNMGDLYRYEEWTRRFIIKTFHDYRVVQLPATAHFSDTKKGRKELKRAQKIYNAHPGLLLMARDETTYQFMKQHFQEKTILKQPDMVLYLDRSKAPAEREGVYMCLREDQESVLQEEQRNRVKAALCEEFGEIKSFTTTIGRRVSRDTREHELEALWSKLQSAEAVVTDRLHGMIFCALTGTPCVVIRSFDHKVMEGYQWLKDIPFMKLIEHPEPERVTAAVNELLTKETSRAGFPRDVYFKGLRDKISGEAQ,not soluble
